The source of these data is patent US20260042834A1 (HBM ALPHA THERAPEUTICS, published 2026).

Values joined by “and” are separate entries in the source; they are usually repeats but may differ in a detail not shown here. Equal values may be shown once. Read-outs that look alike come from different tables or passages of the source.

In test [1] the target is T1, corticotropin-releasing hormone (CRH) peptide (human and mouse (same sequence), not fully specified).
T1 peptide: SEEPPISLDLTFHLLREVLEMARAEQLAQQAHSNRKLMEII
The test is described as follows: cell-based or functional assay.

The target of test [2] is T1, corticotropin-releasing hormone (CRH) …. Kind of test: cell-based or functional assay.
The target is the same in test [3]. The test is described as follows: cell-based or functional assay.
For test [4] the target is unchanged. Kind of test: cell-based or functional assay.
Test [5] shares this target. Kind of test: cell-based or functional assay.
The target is the same in test [6]. Kind of test: cell-based or functional assay.
Test [7] concerns the target T2, CRH (NT-Biotin) (human and mouse (same sequence), not fully specified; biotin at the N-terminus).
T2 peptide: T1 peptide
Kind of test: ELISA, biotinylated CRH on streptavidin plate. The protocol: (§1) Streptavidin (Thermo, Cat: 21125) was diluted in PBS to a concentration of 2 μg/ml. 100 μl of diluted streptavidin was added per well to ELISA microplates, and the plates were incubated overnight at 4° C. […] 100 μL of 3,3′,5,5′-tetramethylbenzidine (TMB) substrate (Biopanda, Cat: TMB-S-003) was added, and the plates were incubated at room temperature for 15 minutes. 100 μL of ELISA stopping solution (Solarbio, Cat #: C1058) was added to terminate the reaction, and the optical density at 450 nm (OD450 nm) was determined by an ELISA plate reader (Molecular Devices, Spectra max 384 plus).
In general terms: An ELISA detects its analyte on a solid surface through an enzyme-linked reagent.

For test [8], the target named is T3, CRH (CT-Biotin) (human and mouse (same sequence), biotin on an added C-terminal K (CRH-K-Biotin)).
T3 construct: also called Peptide 4 (CRH-Biotin)
T3 peptide: T1 peptide
Kind of test: ELISA, biotinylated CRH on streptavidin plate. The protocol: as §1

Test [9] has as its target T2, CRH (NT-Biotin). The test is described as follows: ELISA, biotinylated CRH on streptavidin plate. The procedure:
as §1

Test [10] has as its target T3, CRH (CT-Biotin). The test is described as follows: ELISA, biotinylated CRH on streptavidin plate. The protocol:
as §1

The target in test [11] is T2, CRH (NT-Biotin). The test is described as follows: ELISA, biotinylated CRH on streptavidin plate. The procedure: as §1
The target of test [12] is T3, CRH (CT-Biotin). Kind of test: ELISA, biotinylated CRH on streptavidin plate. The procedure: as §1
Test [13] deals with T2, CRH (NT-Biotin). Kind of test: ELISA, biotinylated CRH on streptavidin plate. The procedure: as §1
In test [14] the target is T3, CRH (CT-Biotin). Kind of test: ELISA, biotinylated CRH on streptavidin plate. The procedure: as §1
For test [15], the target named is T2, CRH (NT-Biotin). The test is described as follows: ELISA, biotinylated CRH on streptavidin plate. The protocol: as §1
For test [16], the target named is T3, CRH (CT-Biotin). Kind of test: ELISA, biotinylated CRH on streptavidin plate. The procedure:
as §1

The target in test [17] is T2, CRH (NT-Biotin). The test is described as follows: ELISA, biotinylated CRH on streptavidin plate. The protocol: as §1
Test [18] has as its target T3, CRH (CT-Biotin). Kind of test: ELISA, biotinylated CRH on streptavidin plate. The protocol:
as §1

The target of test [19] is T4, corticotropin-releasing hormone (CRH) peptide (human and mouse, not fully specified).
T4 peptide: T1 peptide
The test is described as follows: cell-based or functional assay.

The target in test [20] is T5, biotinylated CRH (human and mouse, not fully specified; biotinylated, position not stated).
T5 construct: also called Biotin-CRH; biotin-labeled CRH
T5 peptide: T1 peptide
Kind of test: Octet BLI, biotinylated CRH on SA sensor. In general terms: In BLI a coated tip is dipped into the sample, and binding shifts an interference pattern.

Test [21] has as its target T6, CRH (NT Biotin) (human and mouse, not fully specified; biotin at the N-terminus).
T6 peptide: T1 peptide
Kind of test: ELISA, biotin peptide on streptavidin plate. The gist of the method:
(§2)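 Read-out is absorbance at 450 nm after a stopped TMB reaction of 15 minutes at room temperature. Wells carried streptavidin, coated from a 2 μg/ml PBS solution overnight at 4° C.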

Test [22] concerns the target T7, CRH (CT Biotin) (human and mouse, C-terminal K-Biotin).
T7 construct: also called Peptide 4 (CRH-Biotin)
T7 peptide: T1 peptide
Kind of test: ELISA, biotin peptide on streptavidin plate. The method, boiled down: as §2

In test [23] the target is T8, N-Terminal CRH (human and mouse, C-terminal K-Biotin).
T8 construct: also called N-Ter-CRH (CT-Bion)
T8 peptide: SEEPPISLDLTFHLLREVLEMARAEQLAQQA
Kind of test: ELISA, biotin peptide on streptavidin plate. The gist of the method:
as §2

Test [24] has as its target T9, hUCN1 (CT Biotin) (human, UniProt P55089 83-122, biotin at the C-terminus).
T9 construct: also called human UCN1 (CT biotin)
T9 peptide (looked up): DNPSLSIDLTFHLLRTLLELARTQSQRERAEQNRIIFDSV
Kind of test: ELISA on streptavidin-captured hUCN1 (CT biotin), mAb at 100 nM and 10 nM; axis labelled RLU, scale 0-4. The procedure:
Streptavidin (Thermo, Cat: 21125) was diluted in PBS with a concentration of 2 μg/mL. 100 μL of diluted streptavidin was added per well to ELISA microplates, and the plates were incubated overnight at 4° C. Plates were blocked with ELISA blocking solution (containing 2% w/v BSA, 0.05% (v/v) Tween-20, pH 7.4 PBS buffer) at 37° C. for 1 hour, and then incubated with either 1 μg/mL hUCN1 (NT Biotin), hUCN1 (CT Biotin), hUCN2 (NT Biotin), hUCN2 (CT Biotin), hUCN3 (NT Biotin), or hUCN3 (CT Biotin) for 1 hour at 37° C. […] 100 μl of TMB Substrate (Biopanda, Cat: TMB-S-003) was added, and the plates were incubated at room temperature for 15 minutes. […]

The target of test [25] is T10, hUCN1 (NT Biotin) (human, UniProt P55089 83-122, biotin at the N-terminus).
T10 construct: also called human UCN1 (NT biotin)
T10 peptide (looked up): T9 peptide (looked up)
The test is described as follows: ELISA on streptavidin-captured hUCN1 (NT biotin), mAb at 100 nM and 10 nM; axis labelled RLU, scale 0-4. The procedure: (§3) Streptavidin (Thermo, Cat: 21125) was diluted in PBS with a concentration of 2 μg/mL. 100 μL of diluted streptavidin was added per well to ELISA microplates, and the plates were incubated overnight at 4° C. Plates were blocked with ELISA blocking solution (containing 2% w/v BSA, 0.05% (v/v) Tween-20, pH 7.4 PBS buffer) at 37° C. for 1 hour, and then incubated with either 1 μg/mL hUCN1 (NT Biotin), hUCN1 (CT Biotin), hUCN2 (NT Biotin), hUCN2 (CT Biotin), hUCN3 (NT Biotin), or hUCN3 (CT Biotin) for 1 hour at 37° C. […] 100 μl of TMB Substrate (Biopanda, Cat: TMB-S-003) was added, and the plates were incubated at room temperature for 15 minutes. 100 μL of ELISA stopping solution (Solarbio, Cat #: C1058) was then added to terminate the reaction, and the OD450 nm was determined by an ELISA plate reader (Molecular Devices, Spectra max 384 plus).

In test [26] the target is T11, human UCN2 peptide (human, UniProt Q96RP3 72-109, limits assumed, not fully specified; biotin at N- or C-terminus in the ELISA).
T11 construct: also called hUCN2; hUCN2 (NT Biotin)
T11 peptide (looked up): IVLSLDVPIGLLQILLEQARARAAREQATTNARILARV
The test is described as follows: ELISA on streptavidin-captured hUCN2 (NT biotin) and hUCN2 (CT biotin), mAb at 100 nM and 10 nM; axis labelled RLU, scale 0-4. The gist of the method:
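Streptavidin-coated plates (2 μg/mL, overnight 4° C.), blocked with 2% BSA/0.05% Tween-20 PBS pH 7.4, then loaded with 1 μg/mL N- or C-terminally biotinylated hUCN peptide, 1 hour at 37° C. Detection by TMB substrate, 15 minutes at room temperature, stopped, OD450 nm read.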

The target in test [27] is T12, human UCN3 peptide (human, UniProt Q969E3 120-157, not fully specified; biotin at N- or C-terminus in the ELISA).
T12 construct: also called hUCN3; hUCN3 (NT Biotin)
T12 peptide (looked up): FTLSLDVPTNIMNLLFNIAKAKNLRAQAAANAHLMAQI
Kind of test: ELISA on streptavidin-captured hUCN3 (NT biotin) and hUCN3 (CT biotin), mAb at 100 nM and 10 nM; axis labelled RLU, scale 0-4. The procedure: as §3

B1: PR004290 (antibody, human IgG1, kappa, V domains shown)
VH: EVQLVESGGVLVQPGGSLRLSCAASGFTFSSYWMTWVRQAPGKGLEWVANIKQDGSEKYYVDSVKGRFTISRDNAKNSLFLQMNSLRAEDTAVYYCARTLIFDYWGQGTLVTVSS
VL: DIVMTQSPLSLPVTPGEPASISCRSSQSLLHSTGYNSLEWYLQKPGQSPQLLIYLGSNRASGVPDRFSGSGSGTDFTLKISRVEAEDVGIYYCMQTLQTPITFGQGTRLEIKR
notes: Series 1; human IgG1 wildtype Fc; also called Hybridoma Clone 28b3
A word on the EC50: it is the concentration that produces a half-maximal response. Low readings indicate greater potency, high ones weaker potency. On to B1, for which the “hCRHR1 Luciferase Reporter Assay IC50” value was 3690 pM and 4870 pM in [1]; 3690 pM in [2]; 5410 pM in test [3]; 1830 pM in test [5]; 1830 pM in test [6]. The “mCrhr1 Luciferase Reporter Assay IC50” value in [1] was 17000 pM and 7780 pM; in test [2] it was 13000 pM; in [3], 18500 pM; in test [4], 5240 pM; in test [5], 5240 pM; in test [6] it was 5240 pM. The concentration giving a half-maximal response (EC50) in [7] is 29 pM; in [8], 64 pM and 32 pM; in [9], 29 pM; in test [10], 32 pM; in test [11], 39 pM; in [12], 70 pM. In addition, the EC50 worked out at 39 pM in test [13]; 70 pM in test [14]; 39 pM in test [15]; 70 pM in [16]; 39 pM in test [17]; 70 pM in [18].

B2: PR302334-26 (antibody, human IgG1, kappa, V domains shown)
VH: EVQLVESGGGLVQPGGSLRLSCAASGFTFSTYAMSWVRQAPGKGLEWVASIRSGGTTYYPDSVKGRFTISRDNSKNSLYLQMNSLRAEDTAVYYCTRGIDWGQGTTVTVSS
VL: DIVMTQSPDSLAVSLGERATINCKASQSVNNDVAWYQQKPGQPPRLLIYYASNRYTGVPDRFSGSGSGTDFTLTISSLQAEDLAVYFCQQDYSSWTFGGGTKVEIKR
notes: Humanized variant of PR302334
Broadly, the Kd is the equilibrium constant for the complex coming apart. Low values mean higher affinity, high ones lower affinity. The term koff denotes a measure of how fast the partners let go of each other. A higher koff goes with a short-lived complex. As a reminder, the kon is a measure of how fast the partners come together. A lower kon goes with slower complex formation. Regarding B2, the “CHO-CRE-hCRHR1 0.5 nM CRH IC50” value in [19] was 1100 pM. The molecule further returned a Kd in test [20] of less than 1 pM. For the same molecule, the off-rate constant (koff) in test [20] was less than 1e-07 s⁻¹. In test [20], this molecule yielded a kon of 329000 M⁻¹ s⁻¹. The EC50 in test [21] was found to be 29 pM; in test [22], 28 pM; in [23] it was 29 pM. Also, the binding result in test [24], in [25], in [26] and in test [27] was “no binding (tested: 100 nM)” throughout.
